We go through one substance from US20200172626A1.

The target in this experiment is human 4-1BB expressed on cells (human) (UniProt Q07011). The experiment in a line: flow cytometry dot plot (CD8-BV510 against BBK-4-Dylight488) on human CD8+ T cells activated with anti-CD3 for 2 days; antibody at 25 ng/ml, anti-mIgG-Dylight488. In general terms: In flow cytometry, cells or beads pass a laser one at a time.
Chain of human 4-1BB expressed on cells (human) (Q07011 24-255 limits assumed): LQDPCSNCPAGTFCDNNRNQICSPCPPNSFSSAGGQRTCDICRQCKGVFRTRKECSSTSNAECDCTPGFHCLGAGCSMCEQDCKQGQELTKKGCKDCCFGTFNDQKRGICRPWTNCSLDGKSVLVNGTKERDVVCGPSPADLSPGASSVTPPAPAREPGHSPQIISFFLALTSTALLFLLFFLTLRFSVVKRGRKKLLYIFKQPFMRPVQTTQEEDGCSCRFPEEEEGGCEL

Substance BBK-4 murine anti-human 4-1BB antibody registered a % of 4-1BB-positive CD8 T cells of 1.72%.
